In paper PMC5355875, “Crystal structure of a raw-starch-degrading bacterial α-amylase belonging to subfamily 37 of the glycoside hydrolase family GH13” (Scientific Reports, 2017):

Assays:
[1] = test system: T1, OC[C@H]1O[C@@H]2O[C@H]3[C@H](O)[C@@H](O)[C@@H](O[C@H]4[C@H](O)[C@@H](O)[C@@H](O[C@H]5[C@H](O)[C@@H](O)[C@@H](O[C@H]6[C@H](O)[C@@H](O)[C@@H](O[C@H]7[C@H](O)[C@@H](O)[C@@H](O[C@H]8[C@H](O)[C@@H](O)[C@@H](O[C@H]9[C@H](O)[C@@H](O)[C@@H](O[C@H]1[C@H](O)[C@H]2O)O[C@@H]9CO)O[C@@H]8CO)O[C@@H]7CO)O[C@@H]6CO)O[C@@H]5CO)O[C@@H]4CO)O[C@@H]3CO; assay: reducing sugar assay (copper-bicinchoninate), Michaelis-Menten fit; assay type: biochemical, uncultured bacterium; details: 40 °C, pH 6.5, 20 mM HEPES, 150 mM NaCl, 10 mM CaCl2
T1 construct: SBD-truncated catalytic domain, residues 1-496, N-terminal 6xHis (TEV site)
Excerpt: (§1) reducing sugar assay (copper-bicinchoninate), Michaelis-Menten fit on AmyPΔSBD

AmyP [2] = target: T2, AmyP (uncultured bacterium, UniProt D9MZ14); assay: X-ray crystal structure, […] Å; assay type: binding; details: co-crystallised with β-CD, pH 8.5; active site, subsites -2 and -3
T2 construct: gene Amy-1E; full-length residues 1-639 crystallised, 6xHis tag cut by TEV, E. coli BL21(DE3); only residues 1-496 (AmyPΔSBD) seen in crystals, SBD partly degraded

AmyP [3] = target: T3, AmyP (uncultured bacterium, UniProt D9MZ14, E221Q); assay: X-ray crystal structure, […] Å; assay type: binding; details: co-crystallised with γ-CD, pH 6.0; active site, subsites -1, -2 and -3
T3 construct: gene Amy-1E; full-length residues 1-639 crystallised, 6xHis tag cut by TEV, E. coli BL21(DE3); only residues 1-496 (AmyPΔSBD) seen in crystals, SBD partly degraded

[4] = substrate: OC[C@H]1O[C@@H]2O[C@H]3[C@H](O)[C@@H](O)[C@@H](O[C@H]4[C@H](O)[C@@H](O)[C@@H](O[C@H]5[C@H](O)[C@@H](O)[C@@H](O[C@H]6[C@H](O)[C@@H](O)[C@@H](O[C@H]7[C@H](O)[C@@H](O)[C@@H](O[C@H]8[C@H](O)[C@@H](O)[C@@H](O[C@H]9[C@H](O)[C@@H](O)[C@@H](O[C@H]1[C@H](O)[C@H]2O)O[C@@H]9CO)O[C@@H]8CO)O[C@@H]7CO)O[C@@H]6CO)O[C@@H]5CO)O[C@@H]4CO)O[C@@H]3CO; assay: reducing sugar assay (copper-bicinchoninate), Michaelis-Menten fit; assay type: biochemical, uncultured bacterium; details: 40 °C, pH 6.5, 20 mM HEPES, 150 mM NaCl, 10 mM CaCl2
Excerpt: as §1

Row | Molecule | Km [4] [µM] | kcat [4] [s⁻¹] | kcat/Km [4] [M⁻¹ s⁻¹] | also measured
1 | AmyPΔSBD (uncultured bacterium; N148A) | – | – | – | Km [1]: 200 ± 30 µM; kcat [1]: 22.59 ± 0.007 s⁻¹; kcat/Km [1]: 113000 M⁻¹ s⁻¹
2 | AmyPΔSBD (uncultured bacterium; K131A) | – | – | – | Km [1]: 1290 ± 130 µM; kcat [1]: 7.47 ± 0.004 s⁻¹; kcat/Km [1]: 5800 M⁻¹ s⁻¹
3 | OC[C@H]1O[C@H](O[C@H]2[C@H](O)[C@@H](O)C(O)O[C@@H]2CO)[C@H](O)[C@@H](O)[C@@H]1O (some centres unmarked) [maltose] | – | – | – | X-ray crystal structure, 1.95 Å (AmyP [2]): electron density representing a maltose molecule at subsites -2 and -3
4 | OC[C@H]1O[C@H](O[C@H]2[C@H](O)[C@@H](O)[C@@H](O[C@H]3[C@H](O)[C@@H](O)C(O)O[C@@H]3CO)O[C@@H]2CO)[C@H](O)[C@@H](O)[C@@H]1O (some centres unmarked) [maltotriose] | – | – | – | X-ray crystal structure, 2.55 Å (AmyP [3]): electron density representing a maltotriose molecule bound to the active site
5 | AmyPΔSBD (uncultured bacterium) (protein, SBD-truncated catalytic domain, residues 1-496, N-terminal 6xHis (TEV site)) MCDSALTAQANDLRIYQVMVESFVNGDDAIGHGTGYGTSHHKGDLQGIIDSLDYIESLGMNAIWLTPIFDSIPVEGQDHWADRLDATGYFTSNYFAVDPRFGTMEQAKELVEKAHEKGLYVFFDGVFGHHKDNVVPSPEGRLPVGENNPVSYPESLAFYQEVATFWIEELKIDGWRLDQAYQVPTEAWTAIRASVDEASKSVTYVNSEGEAVNPLGYMVAEIWNNENYIKETGYGAEGEPALCSAFDFPVRYRVVETFAANENGIGNKGGKWLDEGMNLHRLYPSHAQPNLMLGNHDLVRFGDLLQRGNIASPEQAEYWERHKAALSFQAAYSGPITLYYGEEIGDELEGYAQKVEQDCAVQGLCDDHVARTSANIDGLTVNLNEKQRDLKQYVSQLMTLRAAHPALSRGERTNIVANETVYIDHKQADDDALIYMVSTTADQDTVELKASDIASDGQLVDLLTGKVHSAINGEYQISLAPFEAKFLLIETPSASG | 120 ± 5 | 39.58 ± 0.004 | 323000 | –
6 | AmyPΔSBD (uncultured bacterium; N148Y) (protein, SBD-truncated catalytic domain, residues 1-496, N-terminal 6xHis (TEV site)) MCDSALTAQANDLRIYQVMVESFVNGDDAIGHGTGYGTSHHKGDLQGIIDSLDYIESLGMNAIWLTPIFDSIPVEGQDHWADRLDATGYFTSNYFAVDPRFGTMEQAKELVEKAHEKGLYVFFDGVFGHHKDNVVPSPEGRLPVGENYPVSYPESLAFYQEVATFWIEELKIDGWRLDQAYQVPTEAWTAIRASVDEASKSVTYVNSEGEAVNPLGYMVAEIWNNENYIKETGYGAEGEPALCSAFDFPVRYRVVETFAANENGIGNKGGKWLDEGMNLHRLYPSHAQPNLMLGNHDLVRFGDLLQRGNIASPEQAEYWERHKAALSFQAAYSGPITLYYGEEIGDELEGYAQKVEQDCAVQGLCDDHVARTSANIDGLTVNLNEKQRDLKQYVSQLMTLRAAHPALSRGERTNIVANETVYIDHKQADDDALIYMVSTTADQDTVELKASDIASDGQLVDLLTGKVHSAINGEYQISLAPFEAKFLLIETPSASG | 100 ± 9 | 26.11 ± 0.01 | 274000 | –
7 | AmyPΔSBD (uncultured bacterium; Y351A) (protein, SBD-truncated catalytic domain, residues 1-496, N-terminal 6xHis (TEV site)) MCDSALTAQANDLRIYQVMVESFVNGDDAIGHGTGYGTSHHKGDLQGIIDSLDYIESLGMNAIWLTPIFDSIPVEGQDHWADRLDATGYFTSNYFAVDPRFGTMEQAKELVEKAHEKGLYVFFDGVFGHHKDNVVPSPEGRLPVGENNPVSYPESLAFYQEVATFWIEELKIDGWRLDQAYQVPTEAWTAIRASVDEASKSVTYVNSEGEAVNPLGYMVAEIWNNENYIKETGYGAEGEPALCSAFDFPVRYRVVETFAANENGIGNKGGKWLDEGMNLHRLYPSHAQPNLMLGNHDLVRFGDLLQRGNIASPEQAEYWERHKAALSFQAAYSGPITLYYGEEIGDELEGAAQKVEQDCAVQGLCDDHVARTSANIDGLTVNLNEKQRDLKQYVSQLMTLRAAHPALSRGERTNIVANETVYIDHKQADDDALIYMVSTTADQDTVELKASDIASDGQLVDLLTGKVHSAINGEYQISLAPFEAKFLLIETPSASG | 2110 ± 90 | 25.02 ± 0.006 | 11900 | –
